Laboratory results from publication PMC7594292, “Two conformations of DNA polymerase D-PCNA-DNA, an archaeal replisome complex, revealed by cryo-electron microscopy” (BMC Biology, 2020).
One block for each molecule: values may come before it.

Assays:
[1] = biological target: Thermococcus kodakarensis proliferating cell nuclear antigen PCNA1 (TkoPCNA), homotrimer (UniProt Q5JF32); test: SPR; settings: PCNA immobilized on a sensor chip, PolD at 500 nM, read off a plot
[2] = biological target: T1, PolDΔPIP: PolD with DP2(Δ1314-1324) (Thermococcus kodakarensis); test: SPR
[3] = biological target: T2, Thermococcus kodakarensis DNA polymerase D (PolD), wild type, DP1-DP2 heterodimer (Thermococcus kodakarensis); test: SPR
[4] = biological target: T3, PolDΔPIPΔKR: PolD with DP1(K326A K328A) and DP2(K432A R434A R781A, Δ1314-1324) (Thermococcus kodakarensis, UniProt Q5JET0 1-1313, K432A | R434A | R781A, DP1 residue 328 is Ala (wild type printed as both K328 and R328, so the Ala is spliced in). DP2 is the mature intein-free form, residues 1-1313 (PIP box 1314-1324 deleted; mature 1313 = precursor …); test: SPR
[5] = biological target: T4, PolDΔKR: PolD with DP1(K326A K328A) and DP2(K432A R434A R781A) (Thermococcus kodakarensis, DP1 residue 328 is Ala (wild type printed as both K328 and R328, so the Ala is spliced in; the mutagenic primer encodes Ala-Val-Ala at 326-328). DP2 is the mature intein-free form (1324 aa). Zn bound …); test: SPR
[6] = biological target: T1, PolDΔPIP: PolD with DP2(Δ1314-1324); test: SPR; remark: listed apart in the source
[7] = biological target: T2, Thermococcus kodakarensis DNA …; test: SPR; remark: listed apart in the source
[8] = biological target: T3, PolDΔPIPΔKR: PolD with DP1(K326A K328A) …; test: SPR; remark: listed apart in the source
[9] = biological target: T4, PolDΔKR: PolD with DP1(K326A K328A) and …; test: SPR; remark: listed apart in the source
[10] = biological target: the molecule itself; test: cryo-EM structure; PolD-PCNA-primed DNA complex reconstituted from purified proteins without Mg2+ and isolated by gel filtration; Form A with DNA (25/35) at 6.9 Å, Form A and Form B with DNA (30/45); crystal structures and homology models fitted
[11] = biological target: DP1 (PolD small subunit);DP2 (PolD large subunit);TkoPCNA (PCNA1) (Thermococcus kodakarensis;Thermococcus …, UniProt Q5JET1;Q5JET0;Q5JET0;Q5JF32 1-735;1-963;1438-1798;1-249, ||); test: gel filtration; 50 mM NaCl elution; EMSA: 20 mM Tris-HCl pH 8.0, 10 mM KCl, 10 mM (NH4)2SO4, 1 mM DTT, 0.1 mg/ml BSA, 2 mM MgCl2, 40 C 10 min, 0.8% agarose 0.1x TAE; EM complex: 50 mM Tris-HCl pH; settings: protein: recombinant;recombinant;recombinant; tags: ;;; copies: 1;1;1;3; primer-template, 5' overhang 15 nt on template
[12] = biological target: T5, DP1 (PolD small subunit);DP2CTD (Thermococcus kodakarensis;Thermococcus …, UniProt Q5JET1;Q5JET0 1-735;1474-1798, |); test: EMSA; 2 mM MgCl2; EMSA: 20 mM Tris-HCl pH 8.0, 10 mM KCl, 10 mM (NH4)2SO4, 1 mM DTT, 0.1 mg/ml BSA, 2 mM MgCl2, 40 C 10 min, 0.8% agarose 0.1x TAE; EM complex: 50 mM Tris-HCl pH; settings: protein: recombinant;recombinant; tags: ;His; copies: 1;1; label: 5' Cy5 on primer; primer-template, 5' overhang 13 nt on template
T5 sequence 1: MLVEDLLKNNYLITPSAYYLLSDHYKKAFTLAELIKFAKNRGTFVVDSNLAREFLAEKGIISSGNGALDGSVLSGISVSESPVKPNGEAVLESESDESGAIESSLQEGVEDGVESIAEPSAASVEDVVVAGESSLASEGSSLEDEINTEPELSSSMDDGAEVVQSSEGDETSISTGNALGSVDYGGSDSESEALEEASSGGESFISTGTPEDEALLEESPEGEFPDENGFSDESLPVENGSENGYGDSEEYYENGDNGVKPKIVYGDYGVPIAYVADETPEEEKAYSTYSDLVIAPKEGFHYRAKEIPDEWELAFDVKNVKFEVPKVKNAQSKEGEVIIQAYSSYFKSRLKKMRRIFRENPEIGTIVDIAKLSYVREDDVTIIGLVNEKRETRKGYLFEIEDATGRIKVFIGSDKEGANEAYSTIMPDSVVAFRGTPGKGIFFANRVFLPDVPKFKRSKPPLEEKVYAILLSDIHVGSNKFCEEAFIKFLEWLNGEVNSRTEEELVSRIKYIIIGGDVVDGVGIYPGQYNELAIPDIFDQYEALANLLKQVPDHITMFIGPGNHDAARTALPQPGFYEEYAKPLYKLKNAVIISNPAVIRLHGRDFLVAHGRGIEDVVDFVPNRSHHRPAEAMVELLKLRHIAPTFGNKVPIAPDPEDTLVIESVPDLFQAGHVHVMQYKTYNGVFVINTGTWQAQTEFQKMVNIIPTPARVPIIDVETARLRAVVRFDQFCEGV
T5 sequence 2: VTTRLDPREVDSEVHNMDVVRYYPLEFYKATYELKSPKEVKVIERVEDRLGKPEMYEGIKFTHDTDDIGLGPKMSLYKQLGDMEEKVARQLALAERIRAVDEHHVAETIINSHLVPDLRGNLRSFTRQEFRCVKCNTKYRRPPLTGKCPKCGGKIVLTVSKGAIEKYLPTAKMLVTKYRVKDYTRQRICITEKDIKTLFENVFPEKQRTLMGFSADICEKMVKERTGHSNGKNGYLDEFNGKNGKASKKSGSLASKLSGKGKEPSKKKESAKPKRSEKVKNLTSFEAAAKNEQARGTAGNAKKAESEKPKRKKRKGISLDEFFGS

DP2CTD = biological target: T6, DP2CTD (Thermococcus kodakarensis, UniProt Q5JET0 1474-1798); test: EMSA; 2 mM MgCl2; readily detectable but weaker than DP1-DP2CTD; EMSA: 20 mM Tris-HCl pH 8.0, 10 mM KCl, 10 mM (NH4)2SO4, 1 mM DTT, 0.1 mg/ml BSA, 2 mM MgCl2, 40 C 10 min, 0.8% agarose 0.1x TAE; EM complex: 50 mM Tris-HCl pH; settings: protein: recombinant; tags: His; label: 5' Cy5 on primer; primer-template, 5' overhang 13 nt on template
T6 sequence: T5 sequence 2

Sequence of DP1 (PolD small subunit);DP2 (PolD large subunit);TkoPCNA (PCNA1) (Q5JET0 1-963, one chain of several): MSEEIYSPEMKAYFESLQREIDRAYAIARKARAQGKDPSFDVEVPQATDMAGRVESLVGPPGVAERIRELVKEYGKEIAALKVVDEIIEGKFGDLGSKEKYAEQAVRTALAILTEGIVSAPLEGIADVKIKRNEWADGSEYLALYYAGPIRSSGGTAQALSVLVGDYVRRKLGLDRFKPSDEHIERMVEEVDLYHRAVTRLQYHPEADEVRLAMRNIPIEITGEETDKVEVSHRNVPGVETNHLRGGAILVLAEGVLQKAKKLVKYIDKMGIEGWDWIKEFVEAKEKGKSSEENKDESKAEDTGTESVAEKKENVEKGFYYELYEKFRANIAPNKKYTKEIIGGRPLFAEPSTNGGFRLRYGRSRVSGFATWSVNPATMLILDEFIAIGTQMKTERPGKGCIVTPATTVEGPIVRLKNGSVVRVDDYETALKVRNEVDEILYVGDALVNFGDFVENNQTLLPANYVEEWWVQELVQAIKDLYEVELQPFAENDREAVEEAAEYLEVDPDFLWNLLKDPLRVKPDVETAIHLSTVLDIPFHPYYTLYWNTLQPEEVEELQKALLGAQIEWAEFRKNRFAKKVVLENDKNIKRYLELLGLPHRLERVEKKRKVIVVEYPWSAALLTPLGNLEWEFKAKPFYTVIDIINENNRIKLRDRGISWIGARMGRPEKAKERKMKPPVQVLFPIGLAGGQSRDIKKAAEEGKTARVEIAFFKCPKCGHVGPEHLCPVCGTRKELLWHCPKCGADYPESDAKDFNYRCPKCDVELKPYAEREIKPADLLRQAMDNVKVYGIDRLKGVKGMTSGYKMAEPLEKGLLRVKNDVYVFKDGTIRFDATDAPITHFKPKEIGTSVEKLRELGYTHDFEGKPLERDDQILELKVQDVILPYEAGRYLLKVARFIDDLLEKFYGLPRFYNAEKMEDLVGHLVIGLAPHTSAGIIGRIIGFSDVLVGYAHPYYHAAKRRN

B2: primed DNA (30/45) (dsDNA)
DNA 1: CGAACTGCCTGGAATCCTGACGACATGTAG
DNA 2: TGAGGTGATCGTTCGCTACATGTCGTCAGGATTCCAGGCAGTTCG
modifications: four successive phosphorothioates near the 3' end of both strands
- binding result [11]: binds

B3: primed DNA Cy5-pri32/temp45 (dsDNA)
DNA 1: CGAACTGCCTGGAATCCTGACGACATGTAGCG
DNA 2: B2 DNA 2
- binding result [12]: binds
- binding result (DP2CTD): binds

Further lines, with some results ahead:

- response ([1]; parent: est. 1050): 450 RU
Molecule: Thermococcus kodakarensis DNA polymerase D (PolD), wild type, DP1-DP2 heterodimer DP1:K326A; DP1:K328A; DP2:K432A; DP2:R434A; DP2:R781A

- response ([1]; parent: est. 700): 150 RU
Molecule: PolDΔPIP: PolD with DP2(Δ1314-1324) DP1:K326A; DP1:K328A; DP2:K432A; DP2:R434A; DP2:R781A

- Kd [2]: 1300 nM
- Kd [3]: 480 nM
- Kd [4]: 12000 nM
- koff [6]: 0.006 s⁻¹
- koff [7]: 0.0048 s⁻¹
- koff [8]: 0.016 s⁻¹
B1: Thermococcus kodakarensis proliferating cell nuclear antigen PCNA1 (TkoPCNA), homotrimer (natural protein)
chain: MPFEVVFDGAKEFADLIATASNLIDEAAFKFTEEGISMRAMDPSRVVLIDLNLPESIFSKYEVEEPETIGINMDQFKKILKRGKAKDTLILRKGDENFLEITFEGTAKRTFRLPLIDVEELELELPELPFTAKVVLLGEVLKEGIKDASLVSDAIKFIAKENEFTMKAEGETNEVEIRLTLEDEGLLDLEVEEETKSAYGIRYLSDMVKGIGKADEVILRFGNEMPLQMEYMIRDEGRLTFLLAPRVEE
notes: source: purified as described previously [23]
- Kd [5]: 4500 nM
- koff [9]: 0.0087 s⁻¹
- stoichiometry N [10]: 3
